Results: patent US20230095569A1 (ANTENGENE BIOLOGICS, published 2023)

Assays:
[1] = molecular target: T1, human Claudin18.2 (CLDN18.2) (human, UniProt P56856 1-261); experiment: FACS on CHOK1-18.2 cells;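 further: antibody binding to the cells detected with a fluorescently labelled secondary antibody and read out as median fluorescence intensity by flow cytometry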
T1 construct: the cell line is named under assay; also called human Claudine18.2; hClaudin18.2
Method: (§1) The specificity and cross-reactivity of these subclones were confirmed with FACs analysis. […] Fluorescent dye-conjugated secondary antibody was used to detect the binding of the primary antibody with the cells. Median fluorescence intensity (MFI) was measured by FACs analysis.

[2] = molecular target: T2, human Claudin18.1 (CLDN18.1) (human, UniProt P56856 1-261); experiment: FACS on CHOK1-18.1 cells;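 on FACS MFI: test antibody binding to the cells detected by flow cytometry using a fluorescent dye-labelled secondary antibody, read out as median fluorescence intensity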;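 on result: antibody binding to cells detected with a fluorescently labelled secondary antibody, read out as median fluorescence intensity (MFI) by flow cytometry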
T2 construct: whole, on cells; also called human Claudine18.1
Method: as §1

[3] = molecular target: T2, human Claudin18.1 (CLDN18.1); experiment: FACS on CHOK1-18.1 cells; remark: listed apart in the source;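 on FACS MFI: test antibody binding to the cells detected by flow cytometry using a fluorescent dye-labelled secondary antibody, read out as median fluorescence intensity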;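 on result: antibody binding to cells detected with a fluorescently labelled secondary antibody, read out as median fluorescence intensity (MFI) by flow cytometry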
Method: as §1

| Binder | FACS MFI [1] | FACS MFI [2] | binding result [3] |
| --- | --- | --- | --- |
| Ab04 (antibody, V domains shown, mouse monoclonal (hybridoma)) VH: EVQLQQSGPELVKPGASVKMSCMASGYTFTDYNIHWVKRSHGSRLEWIGYISPISGGAGYNQKFMDKATLTVDKSSNTAYMELRSLTSEDSAVYYCTRGDYWGQGTTLTVSS VL: DIVMTQSPSSLAVTVGEKVTMSCKSSQSLLNSGNQKNYLTWYQQKPGQPPKLLIYWASTRKSGVPDRFTGSGSGTDFTLTISSVQAEDLGIYYCLNDYGFPLTFGAGSKLELK | 17600 | 6920 |  |
| Ab01 (antibody, V domains shown, mouse monoclonal (hybridoma)) VH: DVQLQESGPGLVKPSQSLSLTCSVTGYSITSGYYWNWIRQFPGNKLEWMGYITYDGSNNYNPSLKNRISITRDTSKNQFFLKLNSVTTEDAATYFCARDPNYYGTTLPAWFVYWGQGTLVTVSA VL: DIVVTQSHKFMSTSVGDRVSITCKASQDVGTAVAWYQQKPGQSPKLLIYWASTRHTGVPDRFTGSGSGTDFTLTISNVQSEDLTDYFCQQYSSYVTFGAGTKLELK | 12300 | 7250 |  |
| Ab21 (antibody, V domains shown, mouse monoclonal (hybridoma)) VH: EVMLVESGGGLVKPGGSLKLSCAASGFTFSSYTMSWVRQTPEKRLEWVATIIGGYGNTYYVDSVKGRFTISRDSAKNTLYLQMISLRSEDTALYYCTRLGQTQRNAMDYWGQGTSVTVSS VL: DILMTQSPSSLSVSAGEKVTMSCKSSQSLLNSGNQKNYLAWYQQKPGQPPKLLIYGASTRESGVPDRFTGSGSGTDFTLTISSVQAEDLAVYYCQNDYYYPFTFGAGTKLEL | 10100 | 79.4 | no binding |
| Ab26 (antibody, V domains shown, mouse monoclonal (hybridoma)) VH: EVMLVESGGGLVKPGGSLKLSCTASGFTFRSYTMSWVRQTPEKRLEWVATITGGGGNTYFLDSVKGRFTFSRDNAKNALYLQMNSLRSEDTALYYCARLGQTQRNAMDYWGQGTSVTVSS VL: DIVMTQSPSSLSVSAGEKVTMSCKSSQSLLNSGNQMNYLAWYQQKPGQPPKLLIYGASTRESGVPDRFTGSGSGTDFTLTISSVQAEDLAIYYCQNDHTYPLTFGAGTKLEL | 9730 | 80.8 | no binding |
| Ab23 (antibody, V domains shown, mouse monoclonal (hybridoma)) VH: EVMLVESGGGLVKPGGSLKLSCVASGFTFSSYTMSWVRQTPEKRLEWVATLSVVGGNTYYVDSVKGRFTISRDKAKNTLYLQMSSLRSEDTALYYCARLGQTQRNAMDYWGQGTSVTVSS VL: DIVMTQSPSSLSVSAGEKVTMSCKSSQSLLNSGNQKNYLAWYQQKPGQPPKLLIYGASTRESGVPDRFTGSGSGTDFTLTISSVQAEDLAVYYCQNDYSYPLTFGAGTKLEL | 8600 | 82.3 | no binding |
| Ab22 (antibody, V domains shown, mouse monoclonal (hybridoma)) VH: EVMLVESGGGLVKPGGSLKLSCAASGFTFSSYTMSWVRQTPEKRLEWVATIIGGYGNTYYADSVKGRFTISRDSAKNTLYLQMISLRSEDTALYYCTRLGQTQRNAMDYWGQGTSVTVSS VL: DILMTQSPSSLSVSAGEKVTMSCKSSQSLLNSGNQKNYLAWYQQKPGQPPKLLIYGASTRESGVPDTFTGSGSGTDFTLTISSVQAEDLAVYYCQNDYYYPFTFGAGTKLEL | 9020 | 82.3 | no binding |
| Ab20 (antibody, V domains shown, mouse monoclonal (hybridoma)) VH: EVMLVESGGGLVKPGGSLKLSCVASGFTFSSYTMSWVRQTPEKRLEWVATIIGGYGNTYYSDSVKGRITISRDSAKNTLYLQMISLRSEDTALYYCTRLGQTQRNAMDYWGQGTSVTVSS VL: DILMTQSPSSLSVSAGEKVTMNCKSSQSLLNSGNQKNYLAWYQQKPGQPPKLLIYGASTRESGVPDRFTGSGSGTDFTLTISSVQAEDLAVYYCQNDYYYPFTFGAGTKLEL | 7580 | 82.3 | no binding |
| Ab29 (antibody, V domains shown, mouse monoclonal (hybridoma)) VH: EVLLQQSGPELVKPGASVKIPCKASGYTLTDHSMDWVKQSHGKSLEWIGNILPNNGGNIYNQKFRGKATLTVDKSSSTAYMELRSLTSEDTAVYNCARGHYGNSFAYWGQGTLVIVS VL: DIVMTQSPSSLTVRAGEKVTIYCKSSQSLFNSGNQKNYLTWYQQKPGQPPKLLIYWASTRESGVPHRFTGSGSGTDFTLTISSMQADDLATYYCQNGYFFPYTFGGGTKLEIK | 19100 | 97 | no binding |
| Ab03 (antibody, V domains shown, mouse monoclonal (hybridoma)) VH: EVQLQQSGPELVKPGASVKIACKASGYTFTDYNMDWVKQSHGKSLEWIGNINSYYGGTIYNQKFKGKATLTVDKSSSTAYMVLRSLTSEDNAVYYCARPHLGNALDYWGQGTSITVSS VL: DIVVTQSPSSLTVTPGEKVTMSCKSSQSLFNSGNQKNYLSWYQQNPGQPPKLLIYWASTRQSGVPDRFTGSGSGTDFTLTISSVQAEDLAGYYCQNDYIFPLTFGAGTKLELK | 1960 | 95.6 | no binding |
| Ab36 (antibody, V domains shown, mouse monoclonal (hybridoma)) VH: EVKLEESGGGLVQPGGSMKLSCVASGFTFSNYWMNWVRQSPEKGLEWVAQIRLKSDNYATHYAESVKGMFTISRDDSKSSVYLQMNNLRAEDTGIYYCTAGGDYWGQGTTLTVSS VL: DIVMTQSQKFMSTTVGDRVSITCKASQNVGTAVAWYHQKPGQSPKLLIYSASNRYTGVPDRFIGSGSGTDFTLTISNVQSEDLGNYFCQQYINYLLTFGSGTKLEIK | 18000 |  |  |
| Ab37 (antibody, V domains shown, mouse monoclonal (hybridoma)) VH: EVKLEESGGGLVQPGGSMKLSCVASGFTFSNYWMNWVRQYPEQGLEWVAQIRLNSDNYATHYAESVKGRFTISRDDSRSTVYLQMNNLRAEDTGIYYCTGGGEYWGQGTTLTVSS VL: DIVMTQSQKFMSTTIGDRVSITCKASQNVDTAVAWYQQKPGQSPKLLIYSASTRYTGVPDRFTGSGSGTDFTLTISNMQSEDLADYFCQQYISYQLTFGAGTKLELK | 15200 | 4590 |  |
| Ab38 (antibody, V domains shown, mouse monoclonal (hybridoma)) VH: QIQLVQSGPELKKPGETVKISCKASGYTFTNYGMSWVKQAPGKGLKWMGWINTYSGVPTYADDFKGRFVFSLEASASTAYLQINNLKNEDAATYFCSRWSGPDPLEDHWGQGTTLTVSS VL: QIVLTQSPAIMSASPGEKVTMTCTASLSLNYIHWYRQRSGTSPKRWIYDTSKLASGVPSRFSGSGSGTSYSLTISSMEAEDAATYYCQQWSSNPWTFGGGTKLEIK | 15700 |  |  |
| Ab27 (antibody, V domains shown, mouse monoclonal (hybridoma)) VH: QVQLQQSGAELVRPGSSVKISCKASGYAFSNYWMNWVKQRPGQGLEWIGQIYPGNGDTNYNGKFKGKATLTADKSSTTAYIQLSSLTSEDSAVYFCTRIYYGNSFAYWGQGTLVTVS VL: DIVMTQSPSSLTVTAGERVTMSCKSSQSLLNSGNQKNYLTWYQQKPGQPPKLLIYWASTRESGVPDRFTGSGSGTDFTLTISRVQAQDLAVYYCQNDYYYPLTFGAGTKLELK | 7150 | 97 | no binding |
| Ab28 (antibody, V domains shown, mouse monoclonal (hybridoma)) VH: QVQLKESGPGLVAPSQSLSITCTVSGFSLTSHGVHWVRQPPGKGLEWLGVIWAGGSINFNSALMSRLSISKDNSKNQVFLKMNSLQSDDTAMYYCARDYYYGIGLDYWGQGTTLTVS VL: DIVMTQSPSSLSVSAGEKVTMSCKSSQSLLNSGNQKNYLAWYQQKPGQPPKLLIYGASTRESGVPDRFTGSGSGTDFTLTISSVQAEDLAVYYCQNDYYYPFTFGSGTKLEIK | 8880 | 206 | no binding |
